# In patent publication US20230075633A1 (SHANDONG BOAN BIOTECHNOLOGY, published 2023):
# Where two headings read alike, the source gives them in different places.
# T1: human CEA (human, UniProt P06731 35-702)
# T1 sequence (looked up): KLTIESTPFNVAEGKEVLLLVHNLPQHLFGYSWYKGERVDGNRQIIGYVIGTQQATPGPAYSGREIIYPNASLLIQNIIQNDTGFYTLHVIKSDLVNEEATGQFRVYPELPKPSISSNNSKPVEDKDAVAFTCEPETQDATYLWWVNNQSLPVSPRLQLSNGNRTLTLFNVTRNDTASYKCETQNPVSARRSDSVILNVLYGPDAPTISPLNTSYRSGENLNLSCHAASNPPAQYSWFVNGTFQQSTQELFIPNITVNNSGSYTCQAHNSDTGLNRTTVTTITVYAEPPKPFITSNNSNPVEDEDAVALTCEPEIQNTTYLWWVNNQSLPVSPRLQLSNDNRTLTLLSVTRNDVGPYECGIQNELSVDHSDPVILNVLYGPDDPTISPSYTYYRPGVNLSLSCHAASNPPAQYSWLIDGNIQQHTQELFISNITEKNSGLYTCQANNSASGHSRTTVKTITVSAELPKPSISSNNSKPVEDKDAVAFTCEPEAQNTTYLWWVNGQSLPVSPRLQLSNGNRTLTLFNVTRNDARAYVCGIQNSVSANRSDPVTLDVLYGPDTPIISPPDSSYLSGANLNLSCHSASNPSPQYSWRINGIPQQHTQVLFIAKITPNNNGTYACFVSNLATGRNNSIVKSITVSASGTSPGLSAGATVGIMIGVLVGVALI
# T2: Cynomolgus monkey CD3 protein (cynomolgus monkey, UniProt Q95LI5 22-117)
# T2 sequence (looked up): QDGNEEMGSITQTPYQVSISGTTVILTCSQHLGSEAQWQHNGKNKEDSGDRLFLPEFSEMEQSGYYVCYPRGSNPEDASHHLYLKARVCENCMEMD
# Legend:
# human CEA [1] = target: T1, human CEA; assay: cell-based or functional assay
# human CD3 [2] = target: T3, human CD3 (human, UniProt P07766 23-207); assay: cell-based or functional assay
# [3] = target: T2, Cynomolgus monkey CD3 protein; assay: ELISA on cynomolgus monkey CD3 protein, curve fit
# human CD3 [4] = target: T3, human CD3; assay: cell-based or functional assay; remark: listed apart in the source
# human CEA [5] = target: T1, human CEA; assay: cell-based or functional assay; remark: listed apart in the source
# T3 sequence (P07766 23-207): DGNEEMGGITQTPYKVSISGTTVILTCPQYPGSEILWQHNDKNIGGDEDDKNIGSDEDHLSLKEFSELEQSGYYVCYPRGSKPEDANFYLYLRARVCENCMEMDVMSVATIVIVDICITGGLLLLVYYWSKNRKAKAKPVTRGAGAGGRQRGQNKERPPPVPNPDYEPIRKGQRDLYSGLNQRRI
Binder,lysis of LS-174T cells by PBMC: Bottom (human CEA [1]),lysis of LS-174T cells by PBMC: LogEC50 (human CEA [1]),lysis of LS-174T cells by PBMC: Span (human CEA [1]),lysis of LS-174T cells by PBMC: Top (human CEA [1]),NFAT-luciferase in Jurkat cells: Bottom (human CD3 [2]),NFAT-luciferase in Jurkat cells: LogEC50 (human CD3 [2]),NFAT-luciferase in Jurkat cells: Span (human CD3 [2]),NFAT-luciferase in Jurkat cells: Top (human CD3 [2]),Bottom (best-fit) [3],LogEC50 [3],Span (best-fit) [3],Top (best-fit) [3],NFAT-luciferase in Jurkat cells: Bottom (human CD3 [4]),NFAT-luciferase in Jurkat cells: LogEC50 (human CD3 [4]),NFAT-luciferase in Jurkat cells: Span (human CD3 [4]),NFAT-luciferase in Jurkat cells: Top (human CD3 [4]),lysis of KATO III cells by PBMC: Bottom (human CEA [5]),lysis of KATO III cells by PBMC: LogEC50 (human CEA [5]),lysis of KATO III cells by PBMC: Span (human CEA [5]),lysis of KATO III cells by PBMC: Top (human CEA [5])
"CEA/CD3 parental BsAb (bispecific antibody, V domains shown, also called hT84.66/SP34 bispecific antibody; CEA/CD3 parental bispecific antibody; copies: 2 + 2 + 2 + 2) VH 1: EVQLVESGGGLVQPGGSLRLSCAASGFNIKDTYMHWVRQAPGKGLEWVARIDPAQGNTKYADSVKGRFTISADTSKNTAYLQMNSLRAEDTAVYYCAPFGYYVSDYAMAYWGQGTLVTVSS VL 1: DIQLTQSPSSLSASVGDRVTITCRAGESVDIFGVGFLHWYQQKPGKAPKLLIYRASNLESGVPSRFSGSGSRTDFTLTISSLQPEDFATYYCQQTNEDPYTFGQGTKVEIK VH 2: not shown VL 2: not shown",13.8,-2.69,91.7,106,39.9,-1.52,1280,1320,0.0164,-1.65,4.09,4.1,-1040,-0.58,121000,120000,60.1,-1.85,53,113
"CEA/CD3OPT1a (bispecific antibody, V domains shown, Same format as m1; also called OPTSP34 1a; copies: 2 + 2 + 2 + 2) VH 1: EVQLVESGGGLVQPGGSLRLSCAASGFNIKDTYMHWVRQAPGKGLEWVARIDPAQGNTKYADSVKGRFTISADTSKNTAYLQMNSLRAEDTAVYYCAPFGYYVSDYAMAYWGQGTLVTVSS VL 1: DIQLTQSPSSLSASVGDRVTITCRAGESVDIFGVGFLHWYQQKPGKAPKLLIYRASNLESGVPSRFSGSGSRTDFTLTISSLQPEDFATYYCQQTNEDPYTFGQGTKVEIK VH 2: EVQLVESGGGLVKPGGSLKLSCAASGFTFSTYAMNWVRQAPGKGLEWVARIRSKYNNYATYYADSVKDRFTISRDDSKNTAYLQMNNLRTEDTAVYYCVRHGNFGNSYISYWAYWGQGTTVTVSS VL 2: not shown",17.3,-2.81,89.2,106,49.9,-0.801,1150,1200,0.0666,-1.32,4.02,4.09,1570,-0.0022,130000,132000,52.5,-0.944,51.7,104
"CEA/CD3OPT1a3b (bispecific antibody, V domains shown, Same format as m1; also called OPT SP34 1a3b; copies: 2 + 2 + 2 + 2) VH 1: EVQLVESGGGLVQPGGSLRLSCAASGFNIKDTYMHWVRQAPGKGLEWVARIDPAQGNTKYADSVKGRFTISADTSKNTAYLQMNSLRAEDTAVYYCAPFGYYVSDYAMAYWGQGTLVTVSS VL 1: DIQLTQSPSSLSASVGDRVTITCRAGESVDIFGVGFLHWYQQKPGKAPKLLIYRASNLESGVPSRFSGSGSRTDFTLTISSLQPEDFATYYCQQTNEDPYTFGQGTKVEIK VH 2: EVQLVESGGGLVKPGGSLKLSCAASGFTFSTYAMNWVRQAPGKGLEWVARIRSKYNNYATYYADSVKDRFTISRDDSKNTAYLQMNNLRTEDTAVYYCVRHGNWGNSYISYWAYWGQGTTVTVSS VL 2: not shown",12.1,-2.69,96.6,109,,,,,0.00304,-1.84,4.03,4.03,1600,-0.102,62800,64500,64.6,-0.946,39.4,104
"CEA/CD3OPT1a3b2a (bispecific antibody, V domains shown, Same format as m1; also called OPT SP34 1a3b2a; copies: 2 + 2 + 2 + 2) VH 1: EVQLVESGGGLVQPGGSLRLSCAASGFNIKDTYMHWVRQAPGKGLEWVARIDPAQGNTKYADSVKGRFTISADTSKNTAYLQMNSLRAEDTAVYYCAPFGYYVSDYAMAYWGQGTLVTVSS VL 1: DIQLTQSPSSLSASVGDRVTITCRAGESVDIFGVGFLHWYQQKPGKAPKLLIYRASNLESGVPSRFSGSGSRTDFTLTISSLQPEDFATYYCQQTNEDPYTFGQGTKVEIK VH 2: EVQLVESGGGLVKPGGSLKLSCAASGFTFSTYAMNWVRQAPGKGLEWVARIRSNYNNYATYYADSVKDRFTISRDDSKNTAYLQMNNLRTEDTAVYYCVRHGNWGNSYISYWAYWGQGTTVTVSS VL 2: not shown",11.3,-1.92,93.6,105,,,,,0.00337,-1.81,4.06,4.06,3100,-0.27,10700,13800,63.8,-0.332,34.6,98.5
"CEA/CD3OPT2 (bispecific antibody, V domains shown) VH 1: EVQLVESGGGLVQPGGSLRLSCAASGFNIKDTYMHWVRQAPGKGLEWVARIDPAQGNTKYADSVKGRFTISADTSKNTAYLQMNSLRAEDTAVYYCAPFGYYVSDYAMAYWGQGTLVTVSS VL 1: DIQLTQSPSSLSASVGDRVTITCRAGESVDIFGVGFLHWYQQKPGKAPKLLIYRASNLESGVPSRFSGSGSRTDFTLTISSLQPEDFATYYCQQTNEDPYTFGQGTKVEIK VH 2: EVQLVESGGGLVKPGGSLKLSCAASGFTFNKYAMNWVRQAPGKGLEWVARIRSNYNNYATTFADSVKDRFTISRDDSKNTAYLQMNNLRTEDTAVYYCVRHGNFGNSYISYWAYWGQGTTVTVSS VL 2: not shown",,,,,88.9,-2.09,-30.4,58.5,,,,,,,,,,,,
"CEA/CD3OPT3 (bispecific antibody, V domains shown) VH 1: EVQLVESGGGLVQPGGSLRLSCAASGFNIKDTYMHWVRQAPGKGLEWVARIDPAQGNTKYADSVKGRFTISADTSKNTAYLQMNSLRAEDTAVYYCAPFGYYVSDYAMAYWGQGTLVTVSS VL 1: DIQLTQSPSSLSASVGDRVTITCRAGESVDIFGVGFLHWYQQKPGKAPKLLIYRASNLESGVPSRFSGSGSRTDFTLTISSLQPEDFATYYCQQTNEDPYTFGQGTKVEIK VH 2: EVQLVESGGGLVKPGGSLKLSCAASGFTFNKYAMNWVRQAPGKGLEWVARIRSKYNNYATYYADSVKDRFTISRDDSKNTAYLQMNNLRTEDTAVYYCVRHGQWGNSYISYWAYWGQGTTVTVSS VL 2: not shown",,,,,119,-5.66,-41.4,78,,,,,,,,,,,,
"CEA/CD3OPT3a (bispecific antibody, V domains shown, Same format as m1; copies: 2 + 2 + 2 + 2) VH 1: EVQLVESGGGLVQPGGSLRLSCAASGFNIKDTYMHWVRQAPGKGLEWVARIDPAQGNTKYADSVKGRFTISADTSKNTAYLQMNSLRAEDTAVYYCAPFGYYVSDYAMAYWGQGTLVTVSS VL 1: DIQLTQSPSSLSASVGDRVTITCRAGESVDIFGVGFLHWYQQKPGKAPKLLIYRASNLESGVPSRFSGSGSRTDFTLTISSLQPEDFATYYCQQTNEDPYTFGQGTKVEIK VH 2: not shown VL 2: not shown",13.1,-2.86,92.2,105,52.8,-1.66,1400,1460,0.00466,-1.94,4.01,4.02,,,,,54.7,-2.21,48.1,103
CEA/CD3OPT1a3b2b2 (bispecific antibody) chain 1: EVQLVESGGGLVQPGGSLRLSCAASGFNIKDTYMHWVRQAPGKGLEWVARIDPAQGNTKYADSVKGRFTISADTSKNTAYLQMNSLRAEDTAVYYCAPFGYYVSDYAMAYWGQGTLVTVSS chain 2: DIQLTQSPSSLSASVGDRVTITCRAGESVDIFGVGFLHWYQQKPGKAPKLLIYRASNLESGVPSRFSGSGSRTDFTLTISSLQPEDFATYYCQQTNEDPYTFGQGTKVEIK chain 3: EVQLVESGGGLVKPGGSLKLSCAASGFTFSTYAMNWVRQAPGKGLEWVARIRSKYNNYATYFADSVKDRFTISRDDSKNTAYLQMNNLRTEDTAVYYCVRHGNWGNSYISYWAYWGQGTTVTVSSQSVLTQPPSVSAAPGQRVTISCSGSTGAVTSGYYPNWYQQLPGTAPRLLIGGTKFLAPGTPDRFSGSSKSTSAALAISGVQSEDEADYYCALWYSNRWVFGGGTKLTVLG,,,,,,,,,,,,,3450,-0.0275,2670,6120,,,,
